Measured values from patent US20150376261A1.

Columns and labels:
[1] = target: hMor1-34GS-Nb33 (human); experiment: radioligand competition against [3H]-diprenorphine on Sf9 membranes
[2] = target: hMor1-34GS-Nb10 (human); experiment: as above
[3] = target: hMor1-34GS-Nb33 (human); experiment: ratio of the IC50s on hMor1-34GS-Nb10 (reference) and hMor1-34GS-Nb33 membranes, [3H]-diprenorphine competition

IC50 [1] [nM] | IC50 [2] [nM] | IC50Nb10/IC50Nb33 [3] | Substance
18 | 655 |  | Dmt1-Dalda (peptide)
3.8 | 76.7 | 20 | KGOP01 (peptide)
